In patent US20240409645A1 (DUALYX, published 2024):
Values belong to the binder of their own block, whether it stands above or below them.

Target: T1, human IL-2 receptor (IL-2Rα/IL-2Rβ/γc) (human, UniProt P01589 22-272; P14784 27-551; P31785 23-369)
T1 sequence 1: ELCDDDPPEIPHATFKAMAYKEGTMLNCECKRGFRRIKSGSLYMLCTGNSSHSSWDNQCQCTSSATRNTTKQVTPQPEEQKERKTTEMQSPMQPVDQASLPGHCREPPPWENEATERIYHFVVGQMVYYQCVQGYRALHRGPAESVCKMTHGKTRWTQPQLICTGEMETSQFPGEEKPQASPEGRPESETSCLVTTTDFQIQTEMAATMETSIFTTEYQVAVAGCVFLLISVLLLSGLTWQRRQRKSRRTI
T1 sequence 2: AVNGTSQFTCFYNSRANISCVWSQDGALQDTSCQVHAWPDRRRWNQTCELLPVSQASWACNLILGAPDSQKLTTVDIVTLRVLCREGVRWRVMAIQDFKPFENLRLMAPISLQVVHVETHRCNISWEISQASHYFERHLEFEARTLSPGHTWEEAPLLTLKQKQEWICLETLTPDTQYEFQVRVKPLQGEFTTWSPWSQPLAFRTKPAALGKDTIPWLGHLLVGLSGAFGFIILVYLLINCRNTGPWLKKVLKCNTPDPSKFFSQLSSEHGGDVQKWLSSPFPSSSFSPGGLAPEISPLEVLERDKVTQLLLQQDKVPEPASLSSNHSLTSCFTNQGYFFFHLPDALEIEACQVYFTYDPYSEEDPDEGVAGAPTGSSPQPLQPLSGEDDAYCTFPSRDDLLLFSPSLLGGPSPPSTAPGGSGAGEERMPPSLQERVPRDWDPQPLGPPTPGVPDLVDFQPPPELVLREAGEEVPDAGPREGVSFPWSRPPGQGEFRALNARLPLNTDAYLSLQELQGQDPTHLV
T1 sequence 3: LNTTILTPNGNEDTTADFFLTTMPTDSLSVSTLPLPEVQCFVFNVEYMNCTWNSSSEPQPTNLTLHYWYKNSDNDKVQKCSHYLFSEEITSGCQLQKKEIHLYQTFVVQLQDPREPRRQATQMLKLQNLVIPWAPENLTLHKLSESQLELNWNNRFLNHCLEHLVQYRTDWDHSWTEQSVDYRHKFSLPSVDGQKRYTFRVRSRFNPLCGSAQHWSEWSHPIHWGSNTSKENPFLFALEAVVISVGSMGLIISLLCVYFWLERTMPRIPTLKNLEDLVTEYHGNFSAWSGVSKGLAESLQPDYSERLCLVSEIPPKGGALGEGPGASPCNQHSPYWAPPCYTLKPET
Experiment: cell-based or functional assay

- Fold Max signal (% pSTAT5+) Treg/NK: 1 fold
- Max signal (% pSTAT5+), NK: 0 % pSTAT5+
- Max signal (% pSTAT5+), Treg: 0 % pSTAT5+
B1: DC00047 (other)
chain 1: QVQLVESGGGLVQPGGSLRLSCATSGFTFRNNFMSWVRQAPGKGLEWVSTISYGGESTTYAESVKGRFTISRDNAKNTLYLQMNNLKPEDTAVYYCAKATSYDSIRSGSRGQGTQVTVSSGGGGSGGGGSGGGGSQVQLVESGGGLVQPGGSLRLSCATSGFTFRNNFMSWVRQAPGKGLEWVSTISYGGESTTYAESVKGRFTISRDNAKNTLYLQMNNLKPEDTAVYYCAKATSYDSIRSGSRGQGTQVTVSSDKTHTCPPCPAPEAAGGPSVFLFPPKPKDTLMISRTPEVTCVVVDVSHEDPEVKFNWYVDGVEVHNAKTKPREEQYNSTYRVVSVLTVLHQDWLNGKEYKCKVSNKALGAPIEKTISKAKGQPREPQVYTLPPSRDELTKNQVSLTCLVKGFYPSDIAVEWESNGQPENNYKTTPPVLDSDGSFLLYSKLTVDKSRWQQGNVFSCSVMHEALHNHYTQKSLSLSPGK
chain 2: EVQLVESGGGLVQTGGSLRLSCAASGGTFSRDAMAWFRQVPGKEREFVALISWSGATTNYADSVKGRFAISRDNGKNTVYLQMNRLKPADTAIYYCAADRRPMGSRSYFEPTEYDDWGQGTQVTVSSGGGGSGGGGSGGGGSQVQLVESGGGLVQAGGSLTLSCAAPGRTFGTDVVGWFRQAPGKEREFVASISRSGDGIYYDDSVKGRFTISRNNAWNTVNLQMNSLKVEDTAVYYCAAGDGWSTYDYWGQGTQVTVSSGGGGSGGGGSGGGGSDKTHTCPPCPAPEAAGGPSVFLFPPKPKDTLMISRTPEVTCVVVDVSHEDPEVKFNWYVDGVEVHNAKTKPREEQYNSTYRVVSVLTVLHQDWLNGKEYKCKVSNKALGAPIEKTISKAKGQPREPQVYTLPPSRDELTKNQVSLTCLVKGFYPSDIAVEWESNGQPENNYKTTPPVLDSDGSFFLYSRLTVDKSRWQQGNVFSCSVMHEALHNHYTQKSLSLSPGK

- EC50 (nM) pSTAT5, NK, human PBMCs: 0.176 nM
- EC50 (nM) pSTAT5, Treg, human PBMCs: < 0.1 pM
- Fold Max signal (% pSTAT5+) Treg/NK: 4 fold
- Max signal (% pSTAT5+), NK: 26 % pSTAT5+
- Max signal (% pSTAT5+), Treg: 95 % pSTAT5+
- fold EC50 NK/Treg: > 1760 fold
B2: DC00048 (other)
chain 1: B1 chain 1
chain 2: QVQLVESGGGLVQPGGSLRLSCATSGFTFRNNFMSWVRQAPGKGLEWVSTISYGGESTTYAESVKGRFTISRDNAKNTLYLQMNNLKPEDTAVYYCAKATSYDSIRSGSRGQGTQVTVSSGGGGSGGGGSGGGGSQVQLVESGGGLVQAGGSLTLSCAAPGRTFGTDVVGWFRQAPGKEREFVASISRSGDGIYYDDSVKGRFTISRNNAWNTVNLQMNSLKVEDTAVYYCAAGDGWSTYDYWGQGTQVTVSSGGGGSGGGGSGGGGSEVQLVESGGGLVQTGGSLRLSCAASGGTFSRDAMAWFRQVPGKEREFVALISWSGATTNYADSVKGRFAISRDNGKNTVYLQMNRLKPADTAIYYCAADRRPMGSRSYFEPTEYDDWGQGTQVTVSSGGGGSGGGGSGGGGSDKTHTCPPCPAPEAAGGPSVFLFPPKPKDTLMISRTPEVTCVVVDVSHEDPEVKFNWYVDGVEVHNAKTKPREEQYNSTYRVVSVLTVLHQDWLNGKEYKCKVSNKALGAPIEKTISKAKGQPREPQVYTLPPSRDELTKNQVSLTCLVKGFYPSDIAVEWESNGQPENNYKTTPPVLDSDGSFFLYSRLTVDKSRWQQGNVFSCSVMHEALHNHYTQKSLSLSPGK

- EC50 (nM) pSTAT5, NK, human PBMCs: 0.198 nM
- EC50 (nM) pSTAT5, Treg, human PBMCs: 0.00336 nM
- Fold Max signal (% pSTAT5+) Treg/NK: 4 fold
- Max signal (% pSTAT5+), NK: 27 % pSTAT5+
- Max signal (% pSTAT5+), Treg: 95 % pSTAT5+
- fold EC50 NK/Treg: 59 fold
B3: DC00049 (other)
chain 1: B1 chain 1
chain 2: QVQLVESGGGLVQAGGSLTLSCAAPGRTFGTDVVGWFRQAPGKEREFVASISRSGDGIYYDDSVKGRFTISRNNAWNTVNLQMNSLKVEDTAVYYCAAGDGWSTYDYWGQGTQVTVSSGGGGSGGGGSGGGGSEVQLVESGGGLVQTGGSLRLSCAASGGTFSRDAMAWFRQVPGKEREFVALISWSGATTNYADSVKGRFAISRDNGKNTVYLQMNRLKPADTAIYYCAADRRPMGSRSYFEPTEYDDWGQGTQVTVSSGGGGSGGGGSGGGGSDKTHTCPPCPAPEAAGGPSVFLFPPKPKDTLMISRTPEVTCVVVDVSHEDPEVKFNWYVDGVEVHNAKTKPREEQYNSTYRVVSVLTVLHQDWLNGKEYKCKVSNKALGAPIEKTISKAKGQPREPQVYTLPPSRDELTKNQVSLTCLVKGFYPSDIAVEWESNGQPENNYKTTPPVLDSDGSFFLYSRLTVDKSRWQQGNVFSCSVMHEALHNHYTQKSLSLSPGK
